Data set [1] addresses T1, ARID4A TD151 (Homo sapiens, UniProt P29374 4-151).
T1 sequence: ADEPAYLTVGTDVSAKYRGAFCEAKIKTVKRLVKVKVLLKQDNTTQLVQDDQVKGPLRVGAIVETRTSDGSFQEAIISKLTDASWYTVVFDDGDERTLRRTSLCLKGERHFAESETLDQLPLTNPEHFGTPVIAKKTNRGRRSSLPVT
The experiment in a line: NMR titration; n = 3; 50 mM Tris-HCl pH 7.6, 50 mM NaCl (buffer A); ITC 25 C; EMSA 4 C, 12 uM DNA, 8% native gel in TBE; NMR titration by 1H-15N HSQC (temperature not stated for titration; buffer A also defined elsewhere as 20 mM phosphate, 100 mM NaCl, pH 7.0). The note with it: protein: recombinant; 5' overhang 1 nt on each strand (17 bp paired). A general note: Mobility shift assays separate free from complexed probe on a gel.

Data set [2] deals with T2, ARID4B TD151 (Homo sapiens, UniProt Q4LE39 1-151).
T2 sequence: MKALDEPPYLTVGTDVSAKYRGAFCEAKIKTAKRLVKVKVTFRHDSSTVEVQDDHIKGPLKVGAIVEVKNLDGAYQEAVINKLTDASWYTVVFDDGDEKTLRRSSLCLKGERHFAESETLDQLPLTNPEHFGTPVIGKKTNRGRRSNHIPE
The data set is described as follows: NMR titration; n fixed 3; 50 mM Tris-HCl pH 7.6, 50 mM NaCl (buffer A); ITC 25 C; EMSA 4 C, 12 uM DNA, 8% native gel in TBE; NMR titration by 1H-15N HSQC (temperature not stated for titration; buffer A also defined elsewhere as 20 mM phosphate, 100 mM NaCl, pH 7.0). The note with it: protein: recombinant; chain copies: 3; 5' overhang 1 nt on each strand (17 bp paired).

Data set [3] concerns the target T3, ARID4B TD121 (Homo sapiens, UniProt Q4LE39 1-121).
T3 sequence: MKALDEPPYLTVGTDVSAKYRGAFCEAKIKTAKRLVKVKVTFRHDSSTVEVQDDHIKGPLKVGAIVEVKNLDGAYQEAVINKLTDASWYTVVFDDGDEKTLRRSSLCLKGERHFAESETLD
The experiment in a line: NMR titration; n fixed 5; text says ~110; 50 mM Tris-HCl pH 7.6, 50 mM NaCl (buffer A); ITC 25 C; EMSA 4 C, 12 uM DNA, 8% native gel in TBE; NMR titration by 1H-15N HSQC (temperature not stated for titration; buffer A also defined elsewhere as 20 mM phosphate, 100 mM NaCl, pH 7.0). As to conditions: protein: recombinant; 5' overhang 1 nt on each strand (17 bp paired).

Data set [4] concerns the target T2, ARID4B TD151. The data set is described as follows: ITC; 50 mM Tris-HCl pH 7.6, 50 mM NaCl (buffer A); ITC 25 C; EMSA 4 C, 12 uM DNA, 8% native gel in TBE; NMR titration by 1H-15N HSQC (temperature not stated for titration; buffer A also defined elsewhere as 20 mM phosphate, 100 mM NaCl, pH 7.0). The note with it: protein: recombinant; chain copies: 3; 5' overhang 1 nt on each strand (17 bp paired). Background: In ITC the heat of successive injections is recorded.

For data set [5], the target named is T3, ARID4B TD121. The data set is described as follows: NMR titration; n fixed 3; 50 mM Tris-HCl pH 7.6, 50 mM NaCl (buffer A); ITC 25 C; EMSA 4 C, 12 uM DNA, 8% native gel in TBE; NMR titration by 1H-15N HSQC (temperature not stated for titration; buffer A also defined elsewhere as 20 mM phosphate, 100 mM NaCl, pH 7.0). The note with it: protein: recombinant; 5' overhang 1 nt on each strand (11 bp paired).

For data set [6], the target named is T2, ARID4B TD151. The data set is described as follows: NMR titration; n fixed 2; 50 mM Tris-HCl pH 7.6, 50 mM NaCl (buffer A); ITC 25 C; EMSA 4 C, 12 uM DNA, 8% native gel in TBE; NMR titration by 1H-15N HSQC (temperature not stated for titration; buffer A also defined elsewhere as 20 mM phosphate, 100 mM NaCl, pH 7.0). As to conditions: protein: recombinant; chain copies: 3; 5' overhang 1 nt on each strand (11 bp paired).

B1: dsDNA1 (dsDNA)
DNA 1: CTCAGGTCAAAGGTCACG
DNA 2: TCGTGACCTTTGACCTGA
With B1, the Kd in data set [1] stood at 9.7 ± 0.9 µM; in data set [2] it was 22 µM; in data set [3] it was 111 ± 2 µM; in data set [4] it was 27 ± 8 µM.

B2: dsDNA2 (dsDNA)
DNA 1: CTGTCAAAGGTG
DNA 2: TCACCTTTGACA
With B2, the values for the Kd in data set [5] and in data set [6] were 237 ± 7 µM and 79 ± 3 µM, respectively.

A word on the Kd: it is the concentration at which binding is half-saturated.

(Values after publication PMC8038949, “Structural basis for the DNA-binding activity of human ARID4B Tudor domain”.)
